Source: US7981843

Legend:
[1] = target: PcrV of Pseudomonas aeruginosa strain PA103 (native, on the bacteria) (Pseudomonas aeruginosa); experiment: cell-based or functional assay
[2] = target: GST-PcrV fusion protein (Pseudomonas aeruginosa) [GST: P08515]; experiment: SPR, Biacore 3000, GST-PcrV amine-coupled to CM4 chip, Fab in solution
[3] = target: GST-PcrV fusion protein (Pseudomonas aeruginosa) [GST: P08515]; experiment: dilution ELISA, purified Fab in twofold series in duplicate on plates coated with GST-PcrV, TMB A450 (upper chart)

Row | Molecule | IC50, inhibition of Pseudomonas-mediated (TTSS exotoxin-dependent) cytotoxicity to P3-X63-Ag8 cells, propidium iodide flow cytometry [1] [nM] | Kd [2] [nM] | koff [2] [s⁻¹] | kon [2] [M⁻¹ s⁻¹] | EC50 (read off the curve) [3] [nM]
1 | Mab 166 whole IgG (antibody) | 93 | – | – | – | –
2 | Murine Fab M166 (Fab, from another filing, V domains shown) VH: QVQLKQSGPGLVQPSQSLSITCTVSGFSLTSYGVHWVRQSPGKGLEWLGVIWSGGDTDYNAAFISRLSISKDNSKSQLFFKMNSLRATDTAIYYCARNRGDIYYDFTYAMDYWGQGTSVTVSS VL: DIQMTQSPASLSASVGETVTITCRASGNIQNYLAWYQQTQGKSPQLLVYSAKTLADGVPSRFSGSGSGTQYSLKINSLQPEDFGSYYCQHFWSTPYTFGGGTKLEIKR | – | 1.1 | 0.00026 | 249000 | 6
